“And” between values parts separate entries of the source, which are not always exact repeats. Equal values may be shown once.
Target: mouse CD19 on B cells (mouse) (UniProt P25918)
Test: cell-based or functional assay

Chain of UniProt P25918 (P25918 19-547): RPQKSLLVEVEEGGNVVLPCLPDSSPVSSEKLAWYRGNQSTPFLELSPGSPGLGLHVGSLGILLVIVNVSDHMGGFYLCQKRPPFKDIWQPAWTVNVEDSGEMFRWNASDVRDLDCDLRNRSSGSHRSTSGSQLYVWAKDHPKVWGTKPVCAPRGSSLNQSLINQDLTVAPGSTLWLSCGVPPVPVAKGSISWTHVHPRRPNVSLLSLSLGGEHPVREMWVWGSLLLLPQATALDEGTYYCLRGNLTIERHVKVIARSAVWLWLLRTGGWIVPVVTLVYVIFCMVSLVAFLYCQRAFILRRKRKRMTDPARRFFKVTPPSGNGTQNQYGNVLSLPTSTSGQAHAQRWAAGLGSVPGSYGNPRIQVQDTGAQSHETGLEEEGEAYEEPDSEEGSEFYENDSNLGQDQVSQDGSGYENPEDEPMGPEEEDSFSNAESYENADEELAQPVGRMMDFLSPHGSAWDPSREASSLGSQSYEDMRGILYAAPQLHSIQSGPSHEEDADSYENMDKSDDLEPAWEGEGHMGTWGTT

## anti-CD19-28Z.1-3 CAR (1D3 anti-mouse CD19 chimeric antigen receptor), expressed on transduced mouse CD8+ cytotoxic T cells (from UniProt P31041 115-218; P24161 52-164)
  percent CD19+ B cells remaining in CAR T-treated MRL/lpr mice (flow cytometry): 0.05% and 0.14%

Source: patent US20200085871A1
